Laboratory results: the RNAGym collection of RNA variant scans (doi:10.1073/pnas.2313332121)
Fewer inactive variants are shown than the library holds.

B1: TPR 5TU (parent)
chain: GGAUCUUCUCGAUCUAACAAAAAAGACAAAUCUGCCACAAAGCUUGAGAGCAUCUUCGGAUGCAGAGGCGGCAGCCUUCGGUGGCGCGAUAGCGCCAACGUUCUCAACUAUGACACGCAAAACGCGUGCUCCGUUGAAUGGAGUUUAUCAUG

Variants of: B1
Experiment: polymerase ribozyme fitness, log enrichment relative to wild type (log ratio); higher = more active; in vitro selection for triplet polymerase activity
Procedure, shortened: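 Frozen incubation at −7 °C formed the core of a single, triplicate in vitro selection round applied to PCR-built, transcribed mutant libraries of each subunit of a heterodimeric triplet polymerase ribozyme. Extended constructs were gel-excised, captured with streptavidin beads and amplified by RT-PCR, and input and output libraries were Illumina-sequenced with a filter of ≥10 input reads and ≥1 read per output. Fitness is the logarithm of genotype enrichment relative to wild-type enrichment, with inverse-variance-weighted replicate averaging, and the logarithm is base 2.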

| Variant | polymerase ribozyme fitness (log ratio) |
| --- | --- |
| GGAUCUUCUCGAUCUAACAAAAGAGACAAAUCGGCCACAAAGCUUGAGAGCAUCUUCGGAUGCAGAGGCGGCAGCCUUCGGUGGCGCGAUAGCGCCAACCUUCUCAACUAUGACACGCAAAACGCGUGCUCCGUUGAAUGGAGUUUACCAUG [A23G U33G G100C U148C] | ≤ -4.2 |
| GGAUCUUCUCGAUCUAACAAAAGAGACAAAUCUGCCACAAAGCUUGAGAGCAUCUUCGGAGGCAGAGGCGGCAGCCUUCGGUGGCGCGAUAGGGCCAACGUUCUCAACUAUGACACGCAAAACGCAUGCUCCGUUGAAUGGAGUUUAUCAUG [A23G U61G C93G G126A] | ≤ -4.2 |
| GGAUCUUCUCGAUCUAACAAAAGAGACAAAUCUGCCACAAAGCUUGAGAGCAUCAUCGGAUGCAGAGGCGGCAGCCUUCGGUGGCGUGAUAGCGCCAACGUUCUCAACUAUGACACGCAAAACGCGUGCUCCGUUGAAUGGAGUUUAUCAUG [A23G U55A C87U] | -2.98 |
| GGAUCUUCUCGAUCUAACAAAAGAGACAAAUCUGCCACAAAGCUUGAGAGCAUCUUCUGAUGCAGAGGCGGCAGCCUUCGGUGGCGCGAUAGCGCCAACGUUCUCAAGUAUGACACGCAAAACGCGUGCUCCGUGGAAUGGAGUUUAUCAUG [A23G G58U C108G U135G] | ≤ -4.2 |
| GGAUCUUCUCGAUCUAACAAAAUAGACAAAUCUGCCACAAAGCUUGAGAGCAUCUUCGGAUGCAGAGGCGGCAGCCUUCGGUGGCGCGAUAGCGCCAACGUUCUCAACUAUGACACGCAAAACGCGUGCUCCGUUGAAUGGAGUUUAUCAUG [A23U] | -3.23 |
| GGAUCUUCUCGAUCUAACAAAAGAGACAAAUCUGCCACAAAGCUUGAGAGCAUCUUCGUAUGCAGAGGCGGCAGCCUUCGGUGGCGCGAUAGCGUCAACGUUCUCAACUAUGACACGCAAAACGCGUGCUCCGUUGAAUGGAGUUUAUCAUG [A23G G59U C95U] | -3.41 |
| GGAUCUUCUCGAUCUAACAAAAGAGACAAAUCUGCCACAAAGCAUGAGAGCAUCUUCGGAAGCAGAGGCUGCAGCGUUCGGUGGCGCGAUAGGGCCAACGUUCUCAACUAUGACACGCAAAACGCGUGCUCCGUUGAAUGGACUUUAUCAUG [A23G U44A U61A G70U C76G C93G G143C] | ≤ -4.2 |
| GGAUCUUCUCGAUCUAACAAAAGAGACAAAUCUGCCACAAAGCUUGAGAGCAUCUACGGAUGAAGAGGCGGCAGCCUUCGGUGGUGCGAUAGUGCCAACGUUCUCAACUAUGACACGCAAAACGCGUGCUCCGUUGAAUGGAGUUUAUCAUG [A23G U56A C63A C85U C93U] | ≤ -4.2 |
| GGAUCUUCUCGAUCUAACAAAAGAGACAAAUCUGCCACAAAGCUUGAGAGCAUCUUCGGAUGCAGAGGCGGCAGCCUUCGGUGUCGCGAUAGCGCCAACGUUCUCAACUAUGACACGCAAAACGCGUGCUCCGUUGAAUGGAGUUUAUCAUG [A23G G84U] | -3.88 |
| GGAUCUUCUCGAUCUAACAAAAGAGACAAAUCUGCCACAAAGCUUGAGACCAUCUUCGGAUGCAGAGGCGGCAGCCUUCGGUGGCCCGGUAUCGCCUACGUUCUCAACUAUGACACGCAAAACGCGUGCUCCGUUGAAUGCAGUUUAUCAUG [A23G G50C G86C A89G G92U A97U G141C] | ≤ -4.2 |
| GGAUCUUCUCGAUCUAACAAAAGAGACAAAUCUGCCACAAAGCUUGAGAGCAUCUUCGGAUGCAGAGGCGGCAGCCUUCGGUGGCGCGAUAGCGCCAACGUUCUCAACUAUGACACGCAAAACCCGUGCUCCGUUGAAUGGAGUUUGUCGUG [A23G G124C A147G A150G] | ≤ -4.2 |
| GGAUCUUCUCGAUCUAACAAAAGAGACAAAACUGCCACAAAGCUUGAGAGCAUCUUCCGAUGCAGAGGCCGCAGCCUUCGGUGGCGCGAUAGGGCCAACGUUCUCAGCUAUGACACGCAAAACGCGUGCUCCGUUGAAUGGAGUUUAUCAUG [A23G U31A G58C G70C C93G A107G] | ≤ -4.2 |
| GGAUCUUCUCGAUCUAACAAAAGAGACAAAUCUGCCACAAAGCUUGAGAGCAUCUUCGAAUGCAGAGUCGGCAGCCUUCGGUGGCGCGAUAGCGCCAACGUUCUCAACUAUGACACGCAAAACGCGUGCUCCGUUGAAUGGUGUUUAUCAUG [A23G G59A G68U A142U] | ≤ -4.2 |
| GGAUCUUCUCGAUCUAACAAAAGAGACAAAUCUGCCACAAAGCUUGAGAGCAUCUUCGGAUGCAGAGGCGGCAGCCUUCGGUGGCGCGAUAGCGCCAACGUUCUCAACUAUGACACGCAAAACGCGUGCCCCGUUGAUUGGAGUUUAUCAUG [A23G U130C A138U] | -4.2 |
| GGAUCUUCUCGAUCUAACAAAAGAGACAAAUCUGCCACAAAGCUUGAGAGCAUCUUCGUAUGCAGAGGCGGCAGCCUUCGGUGGCGCGAUAGCGUCAACGUUCUCAACUGUGACACGCAAAACGCGUGCUCCGUUGAAUGGAGUUUAUCAUG [A23G G59U C95U A110G] | -3.86 |
| GGAUCUUCUCGAUCUAACAAAAGAGACAAAUCUGCCACAAAGCUUGAGAUCAUCUUCGGAUGCAGAGGCGGCAGCCUUCGGUGGCGCGAUAGCGCCAACGUUCUCAACUAUGACACGCAAAACGCGUGCUCCGUUGAAUGGAGUUGAUCAUG [A23G G50U U146G] | -3.73 |
| GGAUCUUCUCGAUCUAACAAAAGAGACAAAUCUGCCACAAAGCUUGAGAGCAUCUUCGGAUGCAGAGGCGGCAGCCUUCGAUGGCGCGAUAGCGCCAACGUUCUCAACUAUGACACGCAAUACGCGUGCUCCGUUGAAUGUAGUUUAUCAUG [A23G G81A A121U G141U] | -2.76 |
| GGAUCUUCUCGAUCUAACAAAAGAGACAAAUCUGCCACAAAGCUUGAGAGCAUCUUCGGAUACAGAGGCGGCUGCGUUCGGUGGCGCAAUAGCGCCAACGUUCUUGACUAUGACACGCAAAACGCGUGCUCCGUUGAAUGGAGUUUAUCAUG [A23G G62A A73U C76G G88A C105U A106G] | ≤ -4.2 |
| GGAUCUUCUCGAUCUAACAAAAGAGACAAAUCUGCCACAAAGCUUGAGAGCAUCUUCGGAUGCAGAGGCGGCAGCCUUCGGUGGCGCGAUAUCGCCAACGUUCUCAACUAUGACACGCAAAACGCGUGCUCCGUUGAAUGGAGUUUAUCAUG [A23G G92U] | -3.31 |
